Measured values from paper PMC10318464, “A CsoR family transcriptional regulator, TTHA1953, controls the sulfur oxidation pathway in Thermus thermophilus HB8” (The Journal of Biological Chemistry, 2023).
Positions count from the first letter of the chain named.

B1: ST2_1953_mt8 (spacer -1) (dsDNA)
DNA 1: CTAGGAATTCGTGCAGAGGTGATACTATACCTGGTATGGTACATCCCTCCAGAAGCTTGGAC
DNA 2: GTCCAAGCTTCTGGAGGGATGTACCATACCAGGTATAGTATCACCTCTGCACGAATTCCTAG
B2: ST2_1953_mt7 (spacer +1) (dsDNA)
DNA 1: CTAGGAATTCGTGCAGAGGTGATACTATACCTCTGGTATGGTACATCCCTCCAGAAGCTTGGAC
DNA 2: GTCCAAGCTTCTGGAGGGATGTACCATACCAGAGGTATAGTATCACCTCTGCACGAATTCCTAG
B3: Control (dsDNA)
DNA 1: CCTCTCTATGGGCAGTCGGTGATCTAGGAATTCGTGCAGAGGTGACGTCATAGAATTCGCATCCCTCCAGAAGCTTGGAC
DNA 2: GTCCAAGCTTCTGGAGGGATGCGAATTCTATGACGTCACCTCTGCACGAATTCCTAGATCACCGACTGCCCATAGAGAGG
B4: ST2_1953_mt9 (dsDNA)
DNA 1: CTAGGAATTCGTGCAGAGGTGAGCTTATACCTTGTGCTGGTACATCCCTCCAGAAGCTTGGAC
DNA 2: GTCCAAGCTTCTGGAGGGATGTACCAGCACAAGGTATAAGCTCACCTCTGCACGAATTCCTAG
B5: ST2_1953_mt10 (dsDNA)
DNA 1: B4 DNA 1 with T28G, A29C, C30T, T35G, G36T, C37A
DNA 2: B4 DNA 2 with G27T, C28A, A29C, G34A, T35G, A36C
B6: TTHA1953, CsoR-like protein from Thermus thermophilus HB8 (natural protein, UniProt Q5SGX7 1-93, looked up)
chain: MTRTTDLGQETVDNILKRLRRIEGQVRGLQKMVAEGRPCDEVLTQMTATKKAMEAAATLILHEFLNVCAAEVSEGKVNPKKPEEIATMLKKFI
notes: TTHA1953, CsoR-like protein of Thermus thermophilus HB8; expression vector TEx04A02 bought from RIKEN BioResource Research Center; has two cysteines (C39, C68); No tag is mentioned; Estimated homo-octamer weight 83 kDa, so about 10 kDa a chain; also called CsoR family transcriptional regulator; source: E. coli Rosetta 2 (DE3), purified (1 M NaCl extraction of the pellet after sonication, 70 °C …)

How the values were obtained:
TTHA1953 [1] = target: T1, TTHA1953 (Thermus thermophilus HB8, UniProt Q5SGX7 1-93); test: BLI; 1 mM DTT; BLI: 20 mM Tris pH 7.5, 100 mM NaCl, 1 mM EDTA, 0.05% Tween-20, 1 mM DTT, 37 C; REPSA: 1x CutSmart, 1 mM DTT, 55 C 20 min then 37 C (REPA details not in materia); details: protein: recombinant; chain copies: 8; label: 5' biotin on ST2R strand; blunt
T1 sequence: B6 chain

TTHA1953 [2] = target: T1, TTHA1953; test: as above; details: protein: recombinant, chain copies: 8, blunt
[3] = target: the molecule itself; test: native gel or EMSA; adaptation of a Ferguson plot; apparent weight of the TTHA1953 complex bound to its consensus-sequence DNA (Fig. S3)
[4] = target: the molecule itself; test: non-reducing SDS-PAGE; 2 μg recombinant TTHA1953 treated with buffer, 10 mM CuCl2 or H2O2 for 20 min; Laemmli buffer with or without 350 mM β-mercaptoethanol; Coomassie staining
[5] = label: 5' biotin on ST2R strand

Binder	Kd fold-change relative to consensus (TTHA1953 [1])	binding result (TTHA1953 [2]; [5])	also measured
B1	~15 fold higher Kd than consensus	–	–
B2	~10 fold higher Kd than consensus	–	–
B3	–	–	binding result (TTHA1953 [2]; label: 5' IRDye800 on ControlL strand (REPA)): no binding
B4	–	no binding	–
B5	–	no binding	–
B6	–	–	stoichiometry N [3]: 8; stoichiometry N [4]: 2
